This assay deals with p53 DNA-binding domain (residues 92-312), recombinant untagged (Homo sapiens, UniProt P04637). Kind of assay: ITC. In general terms: Isothermal titration calorimetry measures the heat released or taken up as one component is titrated into another.

The source of these data is paper PMC4227789 (Nucleic Acids Research, 2014).

As usually defined, the Kd is the constant that tells how readily two partners part at equilibrium. In general, stoichiometry N refers to the number of molecules, sites or subunits per partner or assembly.

Chain of p53 DNA-binding domain (residues 92-312), recombinant untagged (P04637 92-312): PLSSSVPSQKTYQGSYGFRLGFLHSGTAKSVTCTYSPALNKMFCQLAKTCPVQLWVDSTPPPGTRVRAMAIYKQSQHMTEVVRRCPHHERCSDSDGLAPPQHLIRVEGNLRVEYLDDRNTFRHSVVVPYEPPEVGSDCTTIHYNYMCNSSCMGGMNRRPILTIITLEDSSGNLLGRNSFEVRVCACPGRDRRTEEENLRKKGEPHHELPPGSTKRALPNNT

B1: p53 DBD nanobody 139, recombinant V5-tagged (VHH)
VHH: QVQLQESGGGLVQAGGSLRLSCAASERTFSTYAMGWFRQAPGREREFLAQINWSGTTTYYAESVKDRTTISRDNAKNTVYLEMNNLNADDTGIYFCAAHPQRGWGSTLGWTYWGQGTQVTVSS
With B1, the Kd is around 1000 nM and the “stoichiometry N” value came to 1.
